Data as given in PMC10034513.
Values belong to the substance of their own block, whether it stands above or below them.

Assays:
[1] = target: P74-26 TTP Q167A variant (bacteriophage P74-26); test: SEC-MALS; 100 μl at 1 mg/ml, filtered through 0.22 μm before loading; 50 mM Tris pH 8.0, 150 mM KCl, 5 mM βME, 5% glycerol; run at room temperature
[2] = target: P74-26 tail tube protein (TTP), gp93, recombinant wild type (bacteriophage P74-26); test: as above
[3] = target: P74-26 tail tube protein (TTP), gp93, recombinant wild type (bacteriophage P74-26); test: light scattering of tube assembly; filtered TTP at ~1 mg/ml, scattering at 350 nm over time; wild type at 4, 20, 25, 37 and 50 °C and a concentration series at 37 °C; variants at 20 °C
[4] = SEC-MALS; 100 μl at 1 mg/ml, filtered through 0.22 μm before loading; 50 mM Tris pH 8.0, 150 mM KCl, 5 mM βME, 5% glycerol; run at room temperature
[5] = target: P74-26 TTP L229A variant (bacteriophage P74-26); test: light scattering of tube assembly; filtered TTP at ~1 mg/ml, scattering at 350 nm over time; wild type at 4, 20, 25, 37 and 50 °C and a concentration series at 37 °C; variants at 20 °C
[6] = target: P74-26 tail tube protein (TTP), gp93, in tails of purified virions (bacteriophage P74-26); test: cryo-EM structure; tails of purified P74-26 virions, segmented helical reconstruction (C3, rise 40.25 Å, twist -44.75°)

- mass fraction of the hexamer peak [2]: 6%
- stoichiometry N [2]: 6
- fast-phase tube growth rate at 37 °C relative to the 20 °C rate (fold (× the 20 °C rate)) [3]: 68
- fast-phase tube growth rate at 50 °C relative to the 20 °C rate (fold (× the 20 °C rate)) [3]: 3520
Substance: P74-26 tail tube protein (TTP), gp93, recombinant wild type (natural protein)

- tube formation rate relative to WT (% of the WT rate) [5]: 10
Substance: P74-26 TTP L229A variant (natural protein)

Further lines, the substance ahead of its results:

Substance: P74-26 TTP Q167A variant (natural protein)
- stoichiometry N [1]: 3

Substance: P74-26 tail tube protein (TTP), gp93, recombinant wild type
- mass fraction of the monomer peak [4]: ∼76% mass fraction

Substance: P74-26 tail tube protein (TTP), gp93, in tails of purified virions (natural protein)
- stoichiometry N [6]: 3
